Reference: article PMC12377726 (Proceedings of the National Academy of Sciences of the …, 2025)
Substitutions are numbered along the chain they refer to.

B1: G001_gp1_V10_VRC01c_2021-0126 (antibody, V domains shown)
VH: QVQLVQSGAEVKKPGASVKVSCKASESTFTDYYMHWVRQAPGQGLEWMGWMNPNSGGTNYALKFQGRVTMTRDTSISTAYMELSRLRSDDTAVYYCATKRRGTYFDQWGQGTLVTVSS
VL: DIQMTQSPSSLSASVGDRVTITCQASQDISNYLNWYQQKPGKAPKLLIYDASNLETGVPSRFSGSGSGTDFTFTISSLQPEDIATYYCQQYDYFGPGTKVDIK
B2: G001_gp1_V10_VRC01c_2021-0120 (antibody, V domains shown)
VH: QVQLVQSGAEVKKPGASVKVSCKASGYTFSGYYMHWVRQAPGQGLEWMGWINPNSGGTNYAQRFQDWVTMTRDTSISTAYMELSRLRSDDTAVYYCARAEYSSAWCFDYWGQGTLVTVSS
VL: DIQMTQSPSSLSASVGDRVTITCQASQDSSKSLNWYQQKPGKAPKLLIYDVSNLETGVPSRFSGSGSGRDFTFTISSLQAEDTATYYCQQYDIFGPGTKVHIK
B3: G001_gp1_V10_VRC01c_2021-0130 (antibody, V domains shown)
VH: QVQLVQSGAEVKKPGASVKVSCKASGYTFTGYYMHWVRQAPGQGLEWMGWINPKSGGTNYAQKFQDWVTMTRDTSISTAYMELSRLRSDDTAVYYCARARVEPGSSWLWGYWGQGTLVTVSS
VL: B2 VL with S29I, K31N, S32Y, R69T, A80P, T83I, D92E, I93T, P96G, H101E
B4: G001_gp1_V10_VRC01c_2021-0121 (antibody, V domains shown)
VH: QVQLVQSGAEVKKPGASVKVSCKASGYSFTGYYIHWVRQVPGQGLEWMGWINPNSGGTNYAQEFQDWVTMTRDTSISTAYMELSRLRSDDTAVYYCARHKPSSRFYFDYWGQGTLVTVSS
VL: DIQMTQSPSTLSASVGDRVTITCRASQSISSWLAWYQQKPGKAPKFLLMYDASSLESGVPSRFSGSGSGTEFTLTISSLQPDDFATYYCQQYETFGQGTKVEIK
B5: G001_gp1_V10_VRC01c_2021-0123 (antibody, V domains shown)
VH: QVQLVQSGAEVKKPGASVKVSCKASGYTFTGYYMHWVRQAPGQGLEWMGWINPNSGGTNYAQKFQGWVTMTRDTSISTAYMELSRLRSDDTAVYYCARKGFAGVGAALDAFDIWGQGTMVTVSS
VL: DIQMTQSPSTLSASVGDRVTITCRASQSISSWLAWYQQKPGKAPKLLIYKASSLESGVPSRFSGSGSGTEFTLTISSLQPDDFATYYCQQYNTFGQGTKVEIK
B6: G001_gp1_V10_VRC01c_2021-0122 (antibody, V domains shown)
VH: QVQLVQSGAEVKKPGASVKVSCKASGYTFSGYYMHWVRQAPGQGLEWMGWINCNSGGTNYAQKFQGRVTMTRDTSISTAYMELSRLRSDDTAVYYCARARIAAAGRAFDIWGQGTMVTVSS
VL: DIQMTQSPSSLSASVGDRVTITCQASQDISNYLNWYQQKPGKAPKLLIYDASNLETGVPSRFSGSGSGTDFTFTISSLQPEDIATYYCQQYGTFGQGTKLEIK
B7: G001_gp1_V10_VRC01c_2021-0127 (antibody, V domains shown)
VH: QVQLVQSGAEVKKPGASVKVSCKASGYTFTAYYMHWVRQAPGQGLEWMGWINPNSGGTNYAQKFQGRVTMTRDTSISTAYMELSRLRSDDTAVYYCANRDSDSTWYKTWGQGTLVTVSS
VL: B6 VL with S30T, Y32H, R61S, I83V, G92V, Q96G, L100V
B8: G001_gp1_V10_VRC01c_2021-0128 (antibody, V domains shown)
VH: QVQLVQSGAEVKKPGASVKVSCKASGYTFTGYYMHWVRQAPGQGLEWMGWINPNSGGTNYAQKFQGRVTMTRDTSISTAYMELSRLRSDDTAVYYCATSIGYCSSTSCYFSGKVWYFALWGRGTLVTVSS
VL: B6 VL with K45N, S76T, G92E, K99N
B9: G001_gp1_V10_VRC01c_2021-0131 (antibody, V domains shown)
VH: QVQLVQSGAEVKKPGASVKVSCEASGYTFTDYYIHWVRQAPGQGLEWMGWINPSSGGTNYAQKFQGWVTMTRDTSISTAYMELSRLTSDDTAFYYCARGLGRQWEWGYWGQGTLVTVSS
VL: B6 VL with S9P, N31K, P40A, A51V, G92E, T93F, K99R
B10: G001_gp1_V10_VRC01c_2021-0125 (antibody, V domains shown)
VH: QVQLVQSGAEVKKPGASVKVSCKASGYTFTGYYIHWVRQAPGQGLEWMGWLNPNSGGTNYLQKFQDRVTMTRDTSIGTAYMELSTLRSDDTAVYYCARGNSGPWAWRYWGQGTLVTVSS
VL: QSALTQPASVSGSPGQSITISCTGTSSDVGGYNSVSWYQQHPGKAPKLMIYDVSNRPSGVSNRFSGSKSGNTASLTISGLQPEDEADYYCSSYEVFGGGTKLTVL
B11: G001_gp1_V10_VRC01c_2021-0124 (antibody, V domains shown)
VH: QVQLVQSGAEVKKPGASVKVSCKASGYTFTGYYMHWVRQAPGQGLEWMGWINPNSGGTNYARKFQGWVTMTRDTSIGTAYMELSRLRSDDTAVYYCAKSRSRDDTWLFDYWGQGTLVTVSS
VL: DIVMTQSPDSLAVSLGERATINCKSSRSVLYSSNNKNFLTWYQQKPGQPPKLLIYWASTRESGVPERFSGSGSGTDFTLTISSLQAEDVAVYYCQQYESFGQGTKLEIK

Biological target: eOD-GT8 (engineered outer domain germline-targeting version 8), monomer (HIV-1 gp120 engineered outer domain, …)

Binder | binding result
B1 | binds
B2 | binds
B3 | binds
B4 | binds
B5 | binds
B6 | binds
B7 | binds
B8 | binds
B9 | binds
B10 | binds
B11 | binds
